Reference: patent US20120244164A1 (published 2012)

Legend:
cynomolgus c-Met = molecular target: T1, cynomolgus c-Met (cynomolgus monkey, UniProt A0M8R7 25-1381 (Papio anubis entry)); experiment: competition FACS: 0.5 nM biotinylated HGF on BAF3 cells with cynomolgus c-Met
T1 construct: also called cynomolgus monkey c-Met; cyno c-Met
Protocol: Cells were analyzed on a FACSarray flow cytometer as described in earlier examples.

Human c-Met [1] = molecular target: T2, Human c-Met (human, UniProt P08581 25-1390); experiment: cell-based or functional assay
[2] = molecular target: T3, recombinant human c-Met/Fc chimera (R&D systems) (human); experiment: SPR (ProteOn), c-Met/Fc captured on anti-human IgG(Fc)
T3 construct: R&D Systems 358-MT/CF, expressed in NS0 cells; also called hc-Met/Fc; hu c-Met/Fc
Protocol: (§1) Anti-human IgG(Fc) antibody (GE Healthcare) was immobilized on a ProteOn GLC Sensorchip (BioRad) via amine coupling on two ligand lanes at densities of approximately 5300 RU and 2700 RU. […] Regeneration of the surface was performed by an 80 seconds injection of 3M magnesium chloride at 25 μl/min (component of kit BR-1008-39, GE Healthcare).
The experiment was performed as described in Example 5.

[3] = molecular target: T4, recombinant human CTLA4/Fc chimera (R&D Systems) (human, UniProt P16410 37-162, limits assumed); experiment: SPR (ProteOn), CTLA4/Fc captured on anti-human IgG(Fc)
T4 construct: control protein; not shown: Fc part of a bought protein, not described
Protocol: as §1

Human c-Met [4] = molecular target: T2, Human c-Met; experiment: cell-based or functional assay; remark: listed apart in the source
[5] = molecular target: T3, recombinant human c-Met/Fc chimera (R&D …); experiment: HGF-competition Alphascreen, EXP 2
[6] = molecular target: T3, recombinant human c-Met/Fc chimera (R&D …); experiment: HGF-competition Alphascreen, EXP 1
[7] = molecular target: T3, recombinant human c-Met/Fc chimera (R&D …); experiment: HGF-competition Alphascreen, EXP 1, second value
[8] = molecular target: T3, recombinant human c-Met/Fc chimera (R&D …); experiment: HGF-competition Alphascreen: biotinylated hHGF, human c-Met/Fc
Human c-Met [9] = molecular target: T2, Human c-Met; experiment: cell-based or functional assay; remark: listed apart in the source
[10] = molecular target: T3, recombinant human c-Met/Fc chimera (R&D …); experiment: HGF/c-MET competition Alphascreen: 100 pM biotinylated hHGF, 100 pM c-MET/Fc
Protocol: (§2) To this mixture the anti-human Fc conjugated acceptor beads and c-MET/Fc (100 pM final concentration) were added and incubated for 2 hours at RT. Next, streptavidin donor beads were added and the mixture was incubated for 1 additional hour. Fluorescence was measured by reading plates on the EnVision Multilabel Plate Reader using an excitation wavelength of 680 nm and an emission wavelength of 520 nm.

[11] = molecular target: T3, recombinant human c-Met/Fc chimera (R&D …); experiment: HGF/c-MET competition Alphascreen; reference 5D5 Fab v2
Protocol: as §2

Human c-Met [12] = molecular target: T2, Human c-Met; experiment: cell-based or functional assay; remark: listed apart in the source
Human c-Met [13] = molecular target: T2, Human c-Met; experiment: cell-based or functional assay; remark: listed apart in the source

T3 sequence (chain, as listed by the source mutant limits assumed): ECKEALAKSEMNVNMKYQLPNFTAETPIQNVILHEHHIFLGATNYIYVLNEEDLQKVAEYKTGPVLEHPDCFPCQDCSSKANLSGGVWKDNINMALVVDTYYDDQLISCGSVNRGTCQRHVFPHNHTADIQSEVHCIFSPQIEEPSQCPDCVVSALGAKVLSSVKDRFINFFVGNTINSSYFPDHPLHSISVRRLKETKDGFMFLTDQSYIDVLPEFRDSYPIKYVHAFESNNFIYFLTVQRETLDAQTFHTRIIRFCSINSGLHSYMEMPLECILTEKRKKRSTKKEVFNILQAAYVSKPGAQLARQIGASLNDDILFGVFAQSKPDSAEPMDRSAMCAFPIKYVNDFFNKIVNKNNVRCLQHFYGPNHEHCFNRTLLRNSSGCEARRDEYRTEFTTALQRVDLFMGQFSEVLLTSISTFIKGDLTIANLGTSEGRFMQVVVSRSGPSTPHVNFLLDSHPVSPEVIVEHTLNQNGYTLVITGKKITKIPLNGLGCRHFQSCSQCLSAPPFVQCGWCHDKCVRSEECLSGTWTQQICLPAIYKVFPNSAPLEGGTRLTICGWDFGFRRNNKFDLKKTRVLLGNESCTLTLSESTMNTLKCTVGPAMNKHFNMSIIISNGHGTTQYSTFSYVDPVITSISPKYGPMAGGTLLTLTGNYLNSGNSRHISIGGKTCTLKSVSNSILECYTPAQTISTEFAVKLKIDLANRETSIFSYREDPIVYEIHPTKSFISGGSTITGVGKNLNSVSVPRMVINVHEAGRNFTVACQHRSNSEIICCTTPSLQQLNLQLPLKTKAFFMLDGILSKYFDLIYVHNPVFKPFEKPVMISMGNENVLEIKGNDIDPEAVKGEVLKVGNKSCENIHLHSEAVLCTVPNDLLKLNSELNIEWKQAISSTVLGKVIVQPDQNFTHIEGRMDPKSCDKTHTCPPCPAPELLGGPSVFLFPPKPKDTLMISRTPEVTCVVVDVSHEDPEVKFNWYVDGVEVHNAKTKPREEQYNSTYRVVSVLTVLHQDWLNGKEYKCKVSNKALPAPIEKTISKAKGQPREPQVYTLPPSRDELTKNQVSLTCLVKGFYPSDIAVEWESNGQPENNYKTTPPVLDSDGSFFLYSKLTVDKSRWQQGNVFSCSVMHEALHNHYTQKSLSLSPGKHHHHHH
T2 sequence (P08581 25-1390 limits assumed): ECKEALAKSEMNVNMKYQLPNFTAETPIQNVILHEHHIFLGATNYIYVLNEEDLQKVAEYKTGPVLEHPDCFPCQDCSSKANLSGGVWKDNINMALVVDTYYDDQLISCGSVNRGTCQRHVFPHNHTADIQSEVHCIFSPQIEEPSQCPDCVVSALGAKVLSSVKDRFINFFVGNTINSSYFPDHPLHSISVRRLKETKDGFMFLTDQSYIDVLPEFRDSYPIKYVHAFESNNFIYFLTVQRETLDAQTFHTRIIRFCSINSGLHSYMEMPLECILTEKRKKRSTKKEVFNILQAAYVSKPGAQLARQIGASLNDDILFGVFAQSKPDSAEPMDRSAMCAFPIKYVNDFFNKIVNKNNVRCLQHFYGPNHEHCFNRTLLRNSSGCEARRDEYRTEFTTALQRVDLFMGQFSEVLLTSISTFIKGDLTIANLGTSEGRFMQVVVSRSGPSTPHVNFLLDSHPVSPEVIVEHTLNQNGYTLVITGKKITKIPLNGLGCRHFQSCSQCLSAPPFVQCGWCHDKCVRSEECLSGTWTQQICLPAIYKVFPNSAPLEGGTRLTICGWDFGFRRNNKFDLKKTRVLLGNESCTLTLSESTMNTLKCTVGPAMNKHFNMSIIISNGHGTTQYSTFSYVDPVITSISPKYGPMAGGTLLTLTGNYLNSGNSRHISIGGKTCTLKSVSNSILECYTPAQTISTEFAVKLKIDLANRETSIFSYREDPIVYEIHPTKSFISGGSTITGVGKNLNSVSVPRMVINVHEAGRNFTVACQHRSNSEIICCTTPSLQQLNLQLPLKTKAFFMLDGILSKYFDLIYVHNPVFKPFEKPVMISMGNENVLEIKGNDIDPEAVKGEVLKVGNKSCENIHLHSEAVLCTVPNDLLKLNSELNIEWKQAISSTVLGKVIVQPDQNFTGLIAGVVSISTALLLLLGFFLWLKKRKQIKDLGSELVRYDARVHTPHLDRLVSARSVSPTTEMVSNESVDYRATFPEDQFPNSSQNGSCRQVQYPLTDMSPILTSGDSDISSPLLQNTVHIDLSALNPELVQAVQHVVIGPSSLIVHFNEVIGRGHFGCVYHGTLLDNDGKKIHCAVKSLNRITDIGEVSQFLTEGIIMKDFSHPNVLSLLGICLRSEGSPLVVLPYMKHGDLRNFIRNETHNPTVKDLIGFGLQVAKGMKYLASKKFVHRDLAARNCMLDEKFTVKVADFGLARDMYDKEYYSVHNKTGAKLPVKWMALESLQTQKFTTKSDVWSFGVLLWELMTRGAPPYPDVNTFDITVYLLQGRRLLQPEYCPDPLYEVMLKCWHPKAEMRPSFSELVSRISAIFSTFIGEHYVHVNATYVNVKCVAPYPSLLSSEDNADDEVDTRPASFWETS
T1 sequence (A0M8R7 25-1381 S170N/I621T limits assumed): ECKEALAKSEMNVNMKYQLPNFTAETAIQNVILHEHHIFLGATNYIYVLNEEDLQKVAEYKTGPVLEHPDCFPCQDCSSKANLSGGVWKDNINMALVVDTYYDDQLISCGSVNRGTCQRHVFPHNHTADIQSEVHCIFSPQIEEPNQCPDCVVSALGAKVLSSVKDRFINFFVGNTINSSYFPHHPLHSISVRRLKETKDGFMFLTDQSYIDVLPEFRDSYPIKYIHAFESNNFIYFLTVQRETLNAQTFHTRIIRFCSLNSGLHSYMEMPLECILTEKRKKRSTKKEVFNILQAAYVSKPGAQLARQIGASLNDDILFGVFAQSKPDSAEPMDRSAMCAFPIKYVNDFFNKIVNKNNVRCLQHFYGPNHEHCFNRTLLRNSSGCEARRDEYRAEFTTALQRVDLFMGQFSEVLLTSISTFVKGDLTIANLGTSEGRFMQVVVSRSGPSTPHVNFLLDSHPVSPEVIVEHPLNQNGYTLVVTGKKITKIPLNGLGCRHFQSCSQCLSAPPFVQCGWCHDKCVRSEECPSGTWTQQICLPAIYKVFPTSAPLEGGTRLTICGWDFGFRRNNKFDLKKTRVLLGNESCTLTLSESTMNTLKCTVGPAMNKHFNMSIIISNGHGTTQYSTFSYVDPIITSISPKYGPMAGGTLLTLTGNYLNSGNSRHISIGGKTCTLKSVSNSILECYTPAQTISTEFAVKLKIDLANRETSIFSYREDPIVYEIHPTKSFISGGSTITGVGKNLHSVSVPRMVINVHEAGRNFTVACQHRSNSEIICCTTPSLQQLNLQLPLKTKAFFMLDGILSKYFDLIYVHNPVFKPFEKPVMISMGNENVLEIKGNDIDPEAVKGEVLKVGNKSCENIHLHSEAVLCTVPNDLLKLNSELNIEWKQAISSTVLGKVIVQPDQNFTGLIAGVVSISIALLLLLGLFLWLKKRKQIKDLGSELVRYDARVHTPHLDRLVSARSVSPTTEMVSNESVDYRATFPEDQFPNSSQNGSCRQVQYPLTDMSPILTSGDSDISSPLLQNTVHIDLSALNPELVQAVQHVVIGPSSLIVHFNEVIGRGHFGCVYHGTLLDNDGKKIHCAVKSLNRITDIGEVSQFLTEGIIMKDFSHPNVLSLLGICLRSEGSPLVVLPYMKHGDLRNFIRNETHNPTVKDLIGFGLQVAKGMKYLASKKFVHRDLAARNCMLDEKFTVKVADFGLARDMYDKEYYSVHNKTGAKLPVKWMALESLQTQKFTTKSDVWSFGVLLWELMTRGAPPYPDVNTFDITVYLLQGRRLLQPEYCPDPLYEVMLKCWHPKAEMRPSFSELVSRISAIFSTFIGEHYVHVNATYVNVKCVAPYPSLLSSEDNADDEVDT
T4 sequence (P16410 37-162 limits assumed, change not shown): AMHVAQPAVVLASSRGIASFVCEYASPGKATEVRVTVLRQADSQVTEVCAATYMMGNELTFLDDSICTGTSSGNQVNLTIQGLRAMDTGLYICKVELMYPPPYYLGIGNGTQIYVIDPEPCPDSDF

B1: 04E09 (L49S) (SEQ ID NO: 23) tagged with 3xFlag-His6 (VHH)
VHH: EVQLVESGGGLVQPGGSLRLSCAASGFILDYYAIGWFRQAPGKEREGVSCIDASDDITYYADSVKGRFTISRDNAKNTVYLQMNSLKPEDTGVYYCATPIGLSSSCLLEYDYDYWGQGTLVTVSS
In the case of B1, the “% inhibition” value (cynomolgus c-Met) is reported as 100%, the IC50 (cynomolgus c-Met) is reported as 0.61 nM and the “IC50, HGF-dependent c-Met phosphorylation in A549 tumor cells” value (Human c-Met [1]) is reported as 3.1 nM.

B2: 04E09 (C22A/C92S) (SEQ ID NO: 25) tagged with 3xFlag-His6 (VHH)
VHH: EVQLVESGGGLVQPGGSLRLSAAASGFILDYYAIGWFRQAPGKEREGVLCIDASDDITYYADSVKGRFTISRDNAKNTVYLQMNSLKPEDTGVYYSATPIGLSSSCLLEYDYDYWGQGTLVTVSSGAADYKDHDGDYKDHDIDYKDDDDKGAAHHHHHH
B2 showed a Kd [2] of 0.0234 nM, a koff [2] of 7.9e-05 s⁻¹ and a kon [2] of 3.37e+06 M⁻¹ s⁻¹. For the same binder, the binding result [3] was “no binding”, the “% inhibition” value (cynomolgus c-Met) was 101% and the IC50 (cynomolgus c-Met) was 0.49 nM. For the same binder, the “IC50, HGF-dependent c-Met phosphorylation in A549 tumor cells” value (Human c-Met [1]) was 3.8 nM.

B3: A00790105 tagged with 3xFlag-His6 (VHH)
VHH: DVQLVESGGGLVQPGGSLRLSCAASGFILDYYAIGWFRQAPGKEREGVLCIDASDDITYYADSVKGRFTISRDNSKNTVYLQMNSLRPEDTAVYYCATPIGLSSSCLLEYDYDYWGQGTLVTVSS
notes: also called 04E09 (E1D, A74S, K83R, G88A, Q108L)
B3 was tested, and the “IC50, c-Met phosphorylation, EXP 2” value (Human c-Met [4]) was 2.33 nM and the IC50 [5] was 0.061 nM.

B4: 04E09 (C50S/C100bG) (SEQ ID NO: 24) tagged with 3xFlag-His6 (VHH)
VHH: EVQLVESGGGLVQPGGSLRLSCAASGFILDYYAIGWFRQAPGKEREGVLSIDASDDITYYADSVKGRFTISRDNAKNTVYLQMNSLKPEDTGVYYCATPIGLSSSGLLEYDYDYWGQGTLVTVSS
With B4 the Kd [2] was 4.09 nM, the koff [2] was 0.000788 s⁻¹ and the kon [2] was 193000 M⁻¹ s⁻¹. The binding result [3] was “no binding”, the “% inhibition” value (cynomolgus c-Met) was 100% and the IC50 (cynomolgus c-Met) was 20 nM. For the same binder, the “factor of decrease in potency against parental SEQ ID NO: 7” value (cynomolgus c-Met) was about 35 fold.

B5: A00790069 (VHH)
VHH: EVQLVESGGGLVQPGGSLRLSCAASGFILDYYAIGWFRQAPGKEREGVLCIDASDDITYYADSVKGRFTISRDNSKNTVYLQMNSLRPEDTAVYYCATPIGLSSSCLLEYDYDYWGQGTLVTVSS
notes: the entry as printed already holds the 3xFLAG-His6 tag; also called 04E09 (A74S, K83R, G88A, Q108L)
In the case of B5, the “IC50, c-Met phosphorylation, EXP 1” value (Human c-Met [4]) is reported as 2.05 nM, the “IC50, c-Met phosphorylation, EXP 2” value (Human c-Met [4]) is reported as 2.45 nM and the IC50 [6] is reported as 0.107 nM. For the same binder, the IC50 [5] was 0.071 nM and the IC50 [7] was 0.046 nM.

B6: A007901222 (bispecific antibody)
chain: DVQLVESGGGLVQPGGSLRLSCAASGFILDYYAIGWFRQAPGKEREGVLCIDASDDITYYADSVKGRFTISRDNSKNTVYLQMNSLRPEDTAVYYCATPIGLSSSCLLEYDYDYWGQGTLVTVSSGGGGSGGGSEVQLLESGGGLVQPGGSLRLSCAASGFTFRSFGMSWVRQAPGKGPEWVSSISGSGSDTLYADSVKGRFTISRDNSKNTLYLQMNSLRPEDTAVYYCTIGGSLSRSSQGTLVTVSSA
notes: produced in P. pastoris X33; also called A00790105-9GS-Alb23-A
With B6 the IC50 [8] was 0.072 nM, the “IC50, c-Met phosphorylation” value (Human c-Met [9]) was 3.97 nM and the “IC50, proliferation assay” value (Human c-Met [9]) was 1.37 nM.

B7: A007901219 (A00790105-9GS-Alb23) (bispecific antibody)
chain: DVQLVESGGGLVQPGGSLRLSCAASGFILDYYAIGWFRQAPGKEREGVLCIDASDDITYYADSVKGRFTISRDNSKNTVYLQMNSLRPEDTAVYYCATPIGLSSSCLLEYDYDYWGQGTLVTVSSGGGGSGGGSEVQLLESGGGLVQPGGSLRLSCAASGFTFRSFGMSWVRQAPGKGPEWVSSISGSGSDTLYADSVKGRFTISRDNSKNTLYLQMNSLRPEDTAVYYCTIGGSLSRSSQGTLVTVSS
notes: also called A007901219 (Alb23)
In the case of B7, the IC50 [10] is reported as 0.066 nM, the “fold improved potency against 5D5 Fab v2” value [11] is reported as over 5 fold and the “fold improved potency against 5D5 Fab v2, cMET phosphorylation assay” value (Human c-Met [12]) is reported as about 2 fold. For the same binder, the “IC50, cMET phosphorylation assay, A549 cells, +HSA” value (Human c-Met [13]) was 4.2 nM and the “IC50, cMET phosphorylation assay, A549 cells, -HSA” value (Human c-Met [13]) was 5.41 nM.
